B1: soluble L1: affinity purified soluble L1 from ascites fluid of ovarian carcinoma patients, 150 kDa and 200 kDa (protein)
chain: IQIPEEYEGHHVMEPPVITEQSPRRLVVFPTDDISLKCEASGKPEVQFRWTRDGVHFKPKEELGVTVYQSPHSGSFTITGNNSNFAQRFQGIYRCFASNKLGTAMSHEIRLMAEGAPKWPKETVKPVEVEEGESVVLPCNPPPSAEPLRIYWMNSKILHIKQDERVTMGQNGNLYFANVLTSDNHSDYICHAHFPGTRTIIQKEPIDLRVKATNSMIDRKPRLLFPTNSSSHLVALQGQPLVLECIAEGFPTPTIKWLRPSGPMPADRVTYQNHNKTLQLLKVGEEDDGEYRCLAENSLGSARHAYYVTVEAAPYWLHKPQSHLYGPGETARLDCQVQGRPQPEVTWRINGIPVEELAKDQKYRIQRGALILSNVQPSDTMVTQCEARNRHGLLLANAYIYVVQLPAKILTADNQTYMAVQGSTAYLLCKAFGAPVPSVQWLDEDGTTVLQDERFFPYANGTLGIRDLQANDTGRYFCLAANDQNNVTIMANLKVKDATQITQGPRSTIEKKGSRVTFTCQASFDPSLQPSITWRGDGRDLQELGDSDKYFIEDGRLVIHSLDYSDQGNYSCVASTELDVVESRAQLLVVGSPGPVPRLVLSDLHLLTQSQVRVSWSPAEDHNAPIEKYDIEFEDKEMAPEKWYSLGKVPGNQTSTTLKLSPYVHYTFRVTAINKYGPGEPSPVSETVVTPEAAPEKNPVDVKGEGNETTNMVITWKPLRWMDWNAPQVQYRVQWRPQGTRGPWQEQIVSDPFLVVSNTSTFVPYEIKVQAVNSQGKGPEPQVTIGYSGEDYPQAIPELEGIEILNSSAVLVKWRPVDLAQVKGHLRGYNVTYWREGSQRKHSKRHIHKDHVVVPANTTSVILSGLRPYSSYHLEVQAFNGRGSGPASEFTFSTPEGVPGHPEALHLECQSNTSLLLRWQPPLSHNGVLTGYVLSYHPLDEGGKGQLSFNLRDPELRTHNLTDLSPHLRYRFQLQATTKEGPGEAIVREGGTMALSGISDFGNISATAGENYSVVSWVPKEGQCNFRFHILFKALGEEKGGASLSPQYVSYNQSSYTQWDLQPDTDYEIHLFKERMFRHQMAVKTNGTGRVRLPPAGFATE
B2: soluble L1 released from HEK293-hL1mutSH3 cells: supernatant collected from HEK293-hL1mutSH3 cells, concentrated tenfold (protein, UniProt P32004 20-1120, looked up)
extracellular domain: B1 chain
modifications: extracellular domain from SH3-motif mutant L1
notes: supernatant collected from HEK293-hL1mutSH3 cells, concentrated tenfold

Test system: HEK293 cells
Assay: Haptotactic cell migration assay in Transwell chambers, HEK293 cells
Type: cell-based, human
Method: (C) Inhibition of haptotactic cell migration in the absence or presence of the indicated mAbs to integrins at a final concentration of 10 μg/ml. FN at 10 μg/ml or BSA for control were coated onto the backside of Transwell chambers. Cells were seeded into the top chamber and allowed to transmigrate for 16 hr at 37° C. The antibody was present during the assay time. Each determination was done in quadruplicate and transmigrated cells were stained from the back of the filter. The dye was eluted from the filter and measured at 595 nm. The amount of dye is proportional to the number of transmigrated cells. Values for the migration on BSA were below 0.25 O.D. units for each cell type.
The haptotactic cell migration assay on fibronectin, laminin or BSA was performed in Transwell chambers (Costar, 6.5 mm diameter, 5 um pore size) and was described in detail elsewhere (Mechtersheimer et al., supra). Transmigrated cells were quantified by staining of the transwell membranes with cristalviolet solution as described (Mechtersheimer at al., supra). The eluted dye was measured at 595 nm in an ELISA reader.

Molecule | induction of cell migration by ascites derived soluble L1 (fibronectin as substrate (FIG. 4B)) | induction of HEK293 migration by L1mutSH3-HEK293 supernatant (conditioned medium concentrated tenfold)
B1 | potent dose-dependent inducer of cell migration | 
B2 |  | able to induce migration

From patent publication US8003599B2, “Inhibitors of L1 and ADAM10 for the treatment of carcinomas” (Deutsches Krebsforschungszentrum, priority 2004, dated 2011)
